Measured values reported in a protein production outcome set (Wang et al. 2014).

Test: label from the status in PepcDB records
In the case of “MLYPNERKSSVHAIPYQDQLKQVQSAVDEFQKANGGLLPIQTKDMSTPLYQKYPIDFNRLAPRYIAEPPSTAFESGGDYQYVLVDVENDPTVKLIDLKMAEKIRDVKLRIQMYRQEHQYPPYKDVLSRDLFTLDEKKLGDGSSLTVTSPISGNSLPLMIDGDGEIYADYRTELASCLKKSKKTFKPGTEIQDMIWHETPFVPAFSVKYTVNDKQEPVFLENDMKKELEHHHHHH”, the protein production is reported as “not failed”. For “MLYVVGIGPGNEEYFTKEAENALNSVDLIVCYTGYKKYIERFDTEIYVSGMTKEVERVEYALKEAENKNVALVSNGDATIYGLASLAYELNEKNLHNVTINVVSGL”, the protein production was “failed”. In the case of “MMAPNQFSSGDVIADRRADYARMLAESGDYPAAAELMEQALELAPRWTAGWFRFGEYHEKAGETAKAVAAYEKVAELDAEGLFAAELKLAVLGAAETPEQPPSRYVEGLFDDYADRFETSLVEKLDYSVPQKLAELIGKAATGDAFDTIVDIGCGTGLLGIEIRSLAKRLEGFDISQNMLAKADEKSLYDHLGQADLSLDAEASGLFTPVLTQHRADLVAAADVMMYLGSLETVMPLVSALLKPSGFFAFSVEDAGDEQGFVLRESLRYAHSKSYVIDLLERSGFSPMEIRKTTIRKDAGKPLSGILFLARAKA”, the protein production is reported as “failed”. With “MMARVEKLRELMKENNLQGFLVTSPYNLRYLTNFTGTTGLAMITLDKAFFVTDFRYTEQAAEQATGFTIVKNTGHIFDEVADLAERLQLDNLAFEETQVSFADYSLLEEILPCELVPVMGLIEELR” the protein production was “not failed”. In the case of “MMDCDHLLRLGMTAKKILENGKGILAADETPKTLGRRFEKLGITNTEENRRKFREILFSTKGIERYIGGVILNQETFEQTSGSGVPLTELLKKKGIEIGIKLDKGLIDYKEKEKISVGLEDLDLRCKSSAFKDATFAKWRSLFYFYDGIPSEDCINENCSILAKYAIICQKNGLVPIVEPEVFLEGDYSMKRSYEVTRQILSTLMKYLNYELVYIPGVLIKASYVTSGQLSNEKYTPKKVATFTLRALLSTIPCGIPGIVFLSGGHGSEDAIGFLNAINMERGCRTWSLSFSFARALTDGVLETWRGDDSNIEEAQKILLETSFKACRGAEGKLWDQE”, the protein production is reported as “not failed”. In the case of “MMDIVEIIIGFIALLMTARIFLERSRARKLLYLCCLSFCISALIALYVDSPMGGIVAITYFICSTISSNAIAYTIEQTKHIE”, the protein production is reported as “failed”. In the case of “MMDYLITQNGGMVFAVLAMATATIFSGIGSAKGVGMTGEAAAALTTSQPEKFGQALILQLLPGTQGLYGFVIAFLIFINLGSDMSVVQGLNFLGASLPIAFTGLFSGIAQGKVAAAGIQILAKKPEHATKGIIFAAMVETYAILGFVISFLLVLNA”, the protein production is reported as “not failed”. For “MMFLHGSRQAVIAALVGLVITVTAFSYLRYQENQVVHDALEAETYNLQRDIRQSLVSHLFVAELLAREWERSDLSIEERWKENADIVTLYYQNVQGITWLNDELDIELIYPQNEQPELLGTPFAKTPLLEKLKASEGNRHAMMGPAGNLGRISSDIAIFVRVEQQDQTHGFLGFVISLQSLFNNVVRSNISEGFQLSVRSDNDILYQFAGDTSLREEWSHFHSLQLVGNSWELSVWPTAGHLEQLRGGISLAALIAGLLVTSMLTFVLYILGQSRFKAQQLADSNIELYSEIDERERIEKQMAYLAEHDSLTGLVNRNALKRILGEWLETESPHKKAALLFIDLDRFKEVNDALGHTVGDELLRRVARRITKLAPKGSVLARAGGDEFLLAIAKPDSRESIIKLSEQMLQALDTHFFVDVYELFISASIGVTFADDADFNAEYFIRNADTALYQAKEHGRNTYKVYDKAIHRDLTKKLELVKRLRHAVSKQQLTVYYQPKVELGSRRISGLEALVRWVDDDGSIIPPDEFIPLAEDTGLIIPISEYVMEEAFLQLKQWHELGFDELSIAINISGKQLHLADLVDDIMERVNEAQIPPNKVELELTEQVFIENIQSHTRFMHSVREQGMSLAIDDFGVGYSSLSYLKNFPVTSLKIDRSFVRDLPHNEDDATITQTIISLARNLNLQLVAEGIETEEQVEFLLQRECSTGQGFLFSKPVPARQITELLQQYKGLIPIQIA”, the protein production was “failed”. In the case of “MMGSVLPAEALVLKTGLKAPGLALAEVITSDILHSFLYGRWRNVLGEQLFEDKSHHASPKTAFTAEVLAQSFSGEVQKLSSLVLPAEVIIAQSSIPGEGLGIFSKTWIKAGTEMGPFTGRVIAPEHVDICKNNNLMWEVFNEDGTVRYFIDASQEDHRSWMTYIKCARNEQEQNLEVVQIGTSIFYKAIEMIPPDQELLVWYGNSHNTFLGIPGVPGLEEDQKKNKHEDFHPADSAAGPAGRMRCVICHRGFNSRSNLRSHMRIHTLDKPFVCRFCNRRFSQSSTLRNHVRLHTGERPYKCQVCQSAYSQLAGLRAHQKSARHRPPSTALQAHSPALPAPHAHAPALAAAAAAAAAAAAHHLPAMVL”, the protein production is reported as “failed”.
